# Reference: US20050048070A1 (published 2005)
# B1: human monoclonal IgM antibody COU-1 (antibody, V domains shown)
# VH: GAEVKKPGASVKVSCKASDYTFSSYYMHWVRQAPGQGLEWMGIINPSGGSTSYAQKFQGRVTMTRDTSTNTVYMELSSLRSEDTAVYYCARDQVVVAATLSNYGMDVWGQGTTVTVSS
# VL: ELTQSPGTLSLSPGERATLSCRASQSVSSSYLAWYQQKPGQAPRLLIYDASNRATGIPARFSGSGSGTDFTLTISSLEPEDFAVYYCQQGTNWGIAFGQGTRLDIKR
# notes: Human IgM with kappa light chain, secreted by hybridoma B9165 (ECACC 87040201), purified from culture supernatant; also called HMab COU-1; HuMab COU-1
# Tests used:
# [1] = molecular target: T1, cleaved K8/K18 heterotypic complexes from adenovirus-infected HeLa cells (human, UniProt P05787 2-483; P05783 75-430, limits assumed); experiment: Western blot of cytokeratin purified from adenovirus-infected HeLa cells (data not shown)
# T1 construct: also called cytokeratin from HeLa cells infected with adenovirus
# T1 chain 1: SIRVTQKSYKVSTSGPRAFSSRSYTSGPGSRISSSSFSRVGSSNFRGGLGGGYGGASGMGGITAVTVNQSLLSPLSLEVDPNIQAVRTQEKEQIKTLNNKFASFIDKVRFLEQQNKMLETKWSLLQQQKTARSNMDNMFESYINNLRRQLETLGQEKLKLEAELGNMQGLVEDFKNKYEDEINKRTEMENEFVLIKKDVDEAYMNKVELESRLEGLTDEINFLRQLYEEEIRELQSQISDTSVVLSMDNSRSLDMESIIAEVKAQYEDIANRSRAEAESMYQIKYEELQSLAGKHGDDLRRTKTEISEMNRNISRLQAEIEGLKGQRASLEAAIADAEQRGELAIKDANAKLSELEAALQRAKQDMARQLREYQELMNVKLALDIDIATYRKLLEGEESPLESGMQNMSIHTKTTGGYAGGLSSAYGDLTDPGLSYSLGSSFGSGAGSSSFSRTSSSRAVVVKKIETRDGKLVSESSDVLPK
# T1 chain 2: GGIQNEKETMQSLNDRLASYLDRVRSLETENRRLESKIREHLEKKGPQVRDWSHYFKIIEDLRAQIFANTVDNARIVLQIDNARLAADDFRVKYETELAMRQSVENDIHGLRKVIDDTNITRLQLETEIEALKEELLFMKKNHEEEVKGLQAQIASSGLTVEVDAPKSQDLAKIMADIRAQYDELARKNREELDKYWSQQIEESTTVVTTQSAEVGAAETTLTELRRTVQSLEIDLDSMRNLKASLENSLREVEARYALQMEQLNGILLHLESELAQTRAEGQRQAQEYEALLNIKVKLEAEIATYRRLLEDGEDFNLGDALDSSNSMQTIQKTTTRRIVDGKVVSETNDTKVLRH
# [2] = molecular target: T2, N-terminally truncated K8 protein where the first 22 amino acids were missing (from colon cancer tissue) (human, UniProt P05787 24-483); experiment: Western blot of cytokeratin bands from colon cancer tissue, bands identified by N-terminal sequencing (drawn table)
# T2 construct: also called K8 starting at residue 23
# T2 chain: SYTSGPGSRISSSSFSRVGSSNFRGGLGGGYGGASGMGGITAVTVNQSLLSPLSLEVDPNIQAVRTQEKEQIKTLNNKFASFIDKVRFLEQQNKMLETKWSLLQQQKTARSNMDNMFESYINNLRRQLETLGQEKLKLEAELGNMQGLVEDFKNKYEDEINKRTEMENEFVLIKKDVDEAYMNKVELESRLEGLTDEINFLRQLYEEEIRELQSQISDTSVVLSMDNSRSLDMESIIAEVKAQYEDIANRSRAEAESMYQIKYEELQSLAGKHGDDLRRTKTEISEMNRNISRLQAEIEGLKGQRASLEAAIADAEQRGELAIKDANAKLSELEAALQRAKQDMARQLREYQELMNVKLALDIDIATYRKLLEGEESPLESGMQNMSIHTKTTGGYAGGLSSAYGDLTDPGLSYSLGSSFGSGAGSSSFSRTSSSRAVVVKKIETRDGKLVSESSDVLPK
# Procedure: Protein bands were visualized with Coomassie Brilliant Blue. Separated proteins were also electroblotted onto polyvinylidene difluoride membranes (PVDF, Immobilon P, Millipore, Bedford, Mass.), at 100 Volts for 1 h in ice, using transfer buffer (10% (v/v) ethanol, 25 mM Tris, 200 mM glycine). Prior to transfer, the membrane was pre-soaked in ethanol for 2 min and the membranes and the gel were incubated in transfer buffer for 10 min. […] The membrane was washed in Western blot buffer and incubated with AP-conjugated rabbit-anti-goat IgG antibody (diluted 1/1000, Sigma), or AP-conjugated rabbit-anti-human IgM antibody (diluted 1/500, DAKO, Glostrup, Denmark) for 2 h at room temperature. Following 3 washes in PBS, the membrane was fixed with 0.2% glutaraldehyde in PBS for 15 min at room temperature and finally washed in PBS. Bound AP conjugate was visualized by NBT/BCIP (Bio-Rad, Hercules, Calif.). MCF7 or Colon 137 cells, resuspended in SDS sample buffer and sonicated, were used as antigen control. A low range protein marker (Bio-Rad) was used to indicate the molecular weight of the fragments.
# [3] = molecular target: T3, K18(1-65) GST fusion protein (human, UniProt P05783 2-66); experiment: Western blot of SDS-PAGE-separated GST fusion proteins
# T3 construct: Alone, not complexed; not shown: glutathione S-transferase (GST) fusion partner, modified pGEX-2T vector
# T3 sequence: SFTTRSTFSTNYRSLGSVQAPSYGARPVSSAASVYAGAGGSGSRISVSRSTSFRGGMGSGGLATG
# [4] = molecular target: T4, K8(1-85)/K18(1-72) heterotypic complex (human, UniProt P05787 2-86; P05783 2-73); experiment: heterotypic association Western blot
# T4 construct: Heterotypic complex of two GST fusion proteins; not shown: glutathione S-transferase (GST) fusion partner, modified pGEX-2T vector
# T4 chain 1: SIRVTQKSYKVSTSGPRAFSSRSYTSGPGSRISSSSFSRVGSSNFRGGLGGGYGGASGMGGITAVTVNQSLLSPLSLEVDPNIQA
# T4 chain 2: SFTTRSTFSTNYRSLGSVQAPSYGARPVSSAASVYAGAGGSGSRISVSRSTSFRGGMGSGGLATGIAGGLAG
# [5] = molecular target: T5, K8(1-85)/K18(1-213) heterotypic complex (human, UniProt P05787 2-86; P05783 2-214); experiment: heterotypic association assay: blotted K8 proteins incubated with purified K18(1-213), then stained with COU-1
# T5 construct: Heterotypic complex of two GST fusion proteins; not shown: glutathione S-transferase (GST) fusion partner, modified pGEX-2T vector
# T5 chain 1: T4 chain 1
# T5 chain 2: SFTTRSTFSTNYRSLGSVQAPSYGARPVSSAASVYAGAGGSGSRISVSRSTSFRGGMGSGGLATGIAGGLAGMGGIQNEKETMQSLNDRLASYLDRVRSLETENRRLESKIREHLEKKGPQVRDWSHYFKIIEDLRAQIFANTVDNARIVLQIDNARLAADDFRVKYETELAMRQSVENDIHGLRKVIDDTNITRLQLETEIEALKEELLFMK
# [6] = molecular target: T6, K8(1-85)/K18(1-124) heterotypic complex (human, UniProt P05787 2-86; P05783 2-125); experiment: heterotypic association assay: blotted K8 proteins incubated with purified K18(1-124), then stained with COU-1
# T6 construct: Heterotypic complex of two GST fusion proteins; not shown: glutathione S-transferase (GST) fusion partner, modified pGEX-2T vector
# [7] = molecular target: T7, K8(1-129)/intact K18 heterotypic complex (human, UniProt P05787 2-130; P05783 2-430); experiment: ELISA: complex coated at 5 µg/ml, COU-1 in serial dilutions, AP-labeled anti-human kappa antibody
# T7 construct: Heterotypic complex of two GST fusion proteins; not shown: glutathione S-transferase (GST) fusion partner, modified pGEX-2T vector
# T7 chain 1: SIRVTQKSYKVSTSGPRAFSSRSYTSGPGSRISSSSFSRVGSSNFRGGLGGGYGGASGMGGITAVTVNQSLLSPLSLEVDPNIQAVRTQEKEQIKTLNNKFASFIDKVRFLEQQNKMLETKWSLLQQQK
# T7 chain 2: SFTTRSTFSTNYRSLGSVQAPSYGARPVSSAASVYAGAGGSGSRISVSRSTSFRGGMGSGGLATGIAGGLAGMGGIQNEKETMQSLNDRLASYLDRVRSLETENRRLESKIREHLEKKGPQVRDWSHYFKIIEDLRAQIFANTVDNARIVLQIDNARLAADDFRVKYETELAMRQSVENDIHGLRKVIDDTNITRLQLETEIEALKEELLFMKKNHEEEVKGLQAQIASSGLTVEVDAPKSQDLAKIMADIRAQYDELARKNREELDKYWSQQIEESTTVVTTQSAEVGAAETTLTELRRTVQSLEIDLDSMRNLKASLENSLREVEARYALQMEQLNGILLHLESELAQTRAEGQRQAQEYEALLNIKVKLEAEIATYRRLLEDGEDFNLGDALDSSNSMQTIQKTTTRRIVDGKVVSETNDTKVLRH
binder,measurement,setting,value
B1,binding result,[1],no binding
same,binding result,[2],no binding (tested: 5 µg/ml COU-1 (P-0279))
same,binding result,[3],no binding (tested: COU-1 5 µg/ml)
same,binding result,[4],no binding (tested: COU-1 5 µg/ml)
same,binding result,[5],no binding (tested: 5 µg/ml COU-1 (P-0285))
same,binding result,[6],no binding (tested: 5 µg/ml COU-1 (P-0285))
same,EC50 (read off the curve),[7],~0.6 µg/mL
